B1: CACACA_site6304 (dsDNA)
DNA 1: CACACGCACGAACACACACACACACGCGCACATATA
DNA 2: TATATGTGCGCGTGTGTGTGTGTGTTCGTGCGTGTG
B2: CACACA_site5283 (dsDNA)
DNA 1: AATATAAATAAAAACACACACACACCGATATATATA
DNA 2: TATATATATCGGTGTGTGTGTGTTTTTATTTATATT
B3: CACACA_site8115 (dsDNA)
DNA 1: AGAAAATACACGCATACACACACACCCACCCACATA
DNA 2: TATGTGGGTGGGTGTGTGTGTATGCGTGTATTTTCT
B4: CACACA_site1716 (dsDNA)
DNA 1: GGGGGGGGAGGGTGAATACACACGTAATAATCATAA
DNA 2: TTATGATTATTACGTGTGTATTCACCCTCCCCCCCC
B5: CACACA_site2302 (dsDNA)
DNA 1: GACATATTCCCCCCCACACACACACCCACATACATA
DNA 2: TATGTATGTGGGTGTGTGTGTGGGGGGGAATATGTC
B6: CACACA_negctrl_site737 (dsDNA)
DNA 1: TTTTTAATTCAAAAAATAATATATTATATTTCAAAT
DNA 2: ATTTGAAATATAATATATTATTTTTTGAATTAAAAA
B7: CACACA_negctrl_site1450 (dsDNA)
DNA 1: ATATATTTTTAAAAAAATTAAGAATTTTACATCTCC
DNA 2: GGAGATGTAAAATTCTTAATTTTTTTAAAAATATAT
B8: CACACA_negctrl_site1507 (dsDNA)
DNA 1: TCTTTAAATCGAGTGTTAAATAATATAATATAAAAA
DNA 2: TTTTTATATTATATTATTTAACACTCGATTTAAAGA
B9: CACACA_site8058 (dsDNA)
DNA 1: AACATACATAAACACACACACACACCCACACCCACA
DNA 2: TGTGGGTGTGGGTGTGTGTGTGTGTTTATGTATGTT
B10: CACACA_site5303 (dsDNA)
DNA 1: CCCCCCCACGGACACACACACATACATACCACATAT
DNA 2: ATATGTGGTATGTATGTGTGTGTGTCCGTGGGGGGG
B11: CACACA_negctrl_site593 (dsDNA)
DNA 1: TAATTTTTGTAAACAGTCATGGATTCAAAAAAAAAA
DNA 2: TTTTTTTTTTGAATCCATGACTGTTTACAAAAATTA
B12: CACACA_negctrl_site1463 (dsDNA)
DNA 1: TGTTTCTGCTCTGGACATTTTTAAAAAAGGGAAAGC
DNA 2: GCTTTCCCTTTTTTAAAAATGTCCAGAGCAGAAACA
B13: CACACA_negctrl_site1631 (dsDNA)
DNA 1: TTTTAATTAAATACAAAAAAAAAAAAAAAAAAAAAA
DNA 2: TTTTTTTTTTTTTTTTTTTTTTGTATTTAATTAAAA
B14: CACACA_negctrl_site699 (dsDNA)
DNA 1: TTTTATTTCAATCCACAAGGGATAAAATAAAGTTTT
DNA 2: AAAACTTTATTTTATCCCTTGTGGATTGAAATAAAA
B15: CACACA_negctrl_site12 (dsDNA)
DNA 1: TTCTTCTAATCCTTTTATCTCATTAAAAAAATATAA
DNA 2: TTATATTTTTTTAATGAGATAAAAGGATTAGAAGAA
B16: CACACA_negctrl_site1662 (dsDNA)
DNA 1: TTATTCAGAAAAAAAAAAAAAAAAAAAAAAAAAAAA
DNA 2: TTTTTTTTTTTTTTTTTTTTTTTTTTTTCTGAATAA
B17: CACACA_negctrl_site1460 (dsDNA)
DNA 1: TATTTTACATAAAAGAAAAAAAAAAAAAAAAAAAAA
DNA 2: TTTTTTTTTTTTTTTTTTTTTCTTTTATGTAAAATA
B18: CACACA_negctrl_site676 (dsDNA)
DNA 1: TATTTATTGTGATACTTATATTACTTAATGATTAAA
DNA 2: TTTAATCATTAAGTAATATAAGTATCACAATAAATA

What follows are binders tested against T1, PF3D7_0420300 D1 (Plasmodium falciparum, UniProt Q8I1N6 1956-2015) (assay: gcPBM; about 25 ug protein; PBS, 1% milk, 0.2 mg/ml BSA, salmon testes DNA, 0.03% Triton X-100). Details: tags: N-terminal GST (pGEX-4T-1), kept; label: surface-attached array probe.
T1 sequence: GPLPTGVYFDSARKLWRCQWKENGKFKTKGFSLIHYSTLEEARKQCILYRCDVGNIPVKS

Binder | binding signal
B1 | 10.4 ln median PBM intensity, better of two orientations
B2 | 10.3 ln median PBM intensity, better of two orientations
B3 | 10.6 ln median PBM intensity, better of two orientations
B4 | 10.5 ln median PBM intensity, better of two orientations
B5 | 10.9 ln median PBM intensity, better of two orientations
B6 | 8.79 ln median PBM intensity, better of two orientations
B7 | 8.78 ln median PBM intensity, better of two orientations
B8 | 9 ln median PBM intensity, better of two orientations
B9 | 10.4 ln median PBM intensity, better of two orientations
B10 | 11 ln median PBM intensity, better of two orientations
B11 | 8.81 ln median PBM intensity, better of two orientations
B12 | 8.94 ln median PBM intensity, better of two orientations
B13 | 8.08 ln median PBM intensity, better of two orientations
B14 | 8.71 ln median PBM intensity, better of two orientations
B15 | 8.97 ln median PBM intensity, better of two orientations
B16 | 8.5 ln median PBM intensity, better of two orientations
B17 | 8.27 ln median PBM intensity, better of two orientations
B18 | 9.03 ln median PBM intensity, better of two orientations

What follows are binders tested against T2, AP2-LT D1 (Plasmodium falciparum, UniProt Q8IAM1 2520-2577) in the same assay as above. Details: tags: N-terminal GST (pGEX-4T-1), kept; label: surface-attached array probe.
T2 sequence: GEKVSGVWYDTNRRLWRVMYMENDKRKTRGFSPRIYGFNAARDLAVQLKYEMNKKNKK

Binder | binding signal
B1 | 10.7 ln median PBM intensity, better of two orientations
B2 | 10.3 ln median PBM intensity, better of two orientations
B3 | 10.7 ln median PBM intensity, better of two orientations
B4 | 10 ln median PBM intensity, better of two orientations
B5 | 10.9 ln median PBM intensity, better of two orientations
B6 | 8.36 ln median PBM intensity, better of two orientations
B7 | 8.56 ln median PBM intensity, better of two orientations
B8 | 8.73 ln median PBM intensity, better of two orientations
B9 | 10.6 ln median PBM intensity, better of two orientations
B10 | 11.2 ln median PBM intensity, better of two orientations
B11 | 8.58 ln median PBM intensity, better of two orientations
B12 | 8.66 ln median PBM intensity, better of two orientations
B13 | 8.41 ln median PBM intensity, better of two orientations
B14 | 8.46 ln median PBM intensity, better of two orientations
B15 | 8.51 ln median PBM intensity, better of two orientations
B16 | 8.18 ln median PBM intensity, better of two orientations
B17 | 8.54 ln median PBM intensity, better of two orientations
B18 | 8.81 ln median PBM intensity, better of two orientations
